For one molecule, gp120 concentration detected, detection limit of gp120 and detectable gp120 concentration in human blood results are on record in US20160237122A1.

Assay [1] concerns the target HIV-1 gp120 protein (Fitzgerald Industries International Inc, USA) (HIV-1). The experiment in a line: fusion peptide on Ni-NTA magnetic agarose beads, detected with FITC-labeled gp120 antibody, fluorescence microscopy.
Assay [2] has the same target. The experiment in a line: dot blot: 5 ng fusion F23 peptide on nitrocellulose, gp120 in 10-fold diluted human serum, HRP-conjugated gp120 antibody, chemiluminescence.
For assay [3] the target is unchanged. The experiment in a line: dot blot: value derived from 1 pg in 1 mL of 10-fold diluted human serum.

B1: fusion F23 peptide (His6-tag, 15 amino acid linker derived from E. coli DHFR, F23) (designed binder)
chain: MIHHHHHHEMISLIAALAVIEGRCNLHFCQLRCKSLGLLGKCAGSFCACV
Consider B1, for which the gp120 concentration detected in assay [1] is 10 ng/µL. Also, in assay [2], the detection limit of gp120 came out at 1 pg/mL. This molecule came in with a detectable gp120 concentration in human blood in assay [3] of 10 pg/mL.
